Reference: patent EP2271364B1

Biological target: CD20 on human lymphoma cells (Daudi, Jeko-1) (human) (UniProt P11836)
Test: cell-based or functional assay

Sequence of UniProt P11836 (P11836 whole entry): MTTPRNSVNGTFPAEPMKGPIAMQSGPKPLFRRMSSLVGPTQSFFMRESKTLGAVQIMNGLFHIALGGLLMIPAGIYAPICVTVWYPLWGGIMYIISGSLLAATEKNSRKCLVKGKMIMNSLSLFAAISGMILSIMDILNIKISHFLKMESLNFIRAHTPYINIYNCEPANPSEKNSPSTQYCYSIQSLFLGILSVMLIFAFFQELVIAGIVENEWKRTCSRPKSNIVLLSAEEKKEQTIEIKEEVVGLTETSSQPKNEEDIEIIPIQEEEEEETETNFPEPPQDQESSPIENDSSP

in vitro proliferation assay, Jeko-1 cells (MTS), high-concentration response [nM]	in vitro proliferation assay, Jeko-1 cells (MTS), low-concentration IFNα2b response [pM]	in vitro proliferation assay, Jeko-1 cells (MTS) [nM]	Substance
0.85	0.97	–	20-2b, a DNL conjugate of CH3-AD2-IgG-hA20 (CH3-AD2-IgG-v-mab) with four IFN-α2b-DDD2 moieties (from UniProt P01563 24-188)
–	–	1.5	veltuzumab (humanized anti-CD20 MAb hA20) (antibody)
